From article doi:10.1101/2025.03.17.643790

Target: fibrillar amyloid-beta (UniProt P05067)
Test: SPR

Sequence of UniProt P05067 (P05067 672-713): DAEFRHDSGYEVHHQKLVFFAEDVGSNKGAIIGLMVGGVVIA

Work on “Galectin-3 (from UniProt P17931 1-250) (natural protein)” yielded a Kd of 9 nM.
